Biological target: NtMYC2aΔN (C-terminal bHLH domain) (Nicotiana tabacum)
Test: EMSA; 10 mM Tris, 50 mM KCl, 1 mM DTT, poly(dI-dC), room temperature; 500x cold probe reduced the signal
Settings: tags: GST fusion, cleaved with thrombin; label: 3' biotin
Description: EMSA was performed according to manual of the kit (LightShift,) Chemiluminescent EMSA Kit, Pierce). The binding buffer was 10 mM Tris, 50 mM KCl, 1 mM DTT, 0.05 μg/μl poly(di-dc), 0.05% NP-40, and 2.5% (v/v) glycerol. The probe was 20 fmol for each reaction. The cold probe and mutated probe were 10 pmol (500×) and the protein was 0.75 μg MYC2aΔN. The binding reaction was performed at room temperature for 20 min. The reaction mixture was separated on a 5% polyacrylamide gel and blotted on Hybond™-N⁺ membrane (Amersham, Piscataway, N.J., USA). UV crosslinker was used to crosslink the DNA to membrane. The membrane was probed and signal was detected according to the manual of kit (Chemiluminescent Nucleic Acid Detection Module Kit, Pierce). Kodak BioMax MS film (Carestream Health, Inc. Rochester, N.Y.) was exposed to record the signal.
Three G-boxes (G2, G3 and G4) were identified in the 0.6 kb NtQPT2 promoter (NCBI accession No. AJ748263), among which G2 box has the highest binding strength with NtMYC2b (Shoji and Hashimoto, 2011). To validate that NtMYC2a binds to G2-box. EMSA experiment was performed with probes of 38 bp consisting of a G2 box (CACGTT) and flanking regions from the NtQPT2 promoter and mutated probe with mutation in the G2 box sequence. We cloned the full length of NtMYC2a and expressed the recombinant protein (NtMYC2a fused with GST) in E. coli. […]

NtMYC2aΔN (C-terminal bHLH domain) (Nicotiana tabacum), sequence (chain, as listed by the source mutant): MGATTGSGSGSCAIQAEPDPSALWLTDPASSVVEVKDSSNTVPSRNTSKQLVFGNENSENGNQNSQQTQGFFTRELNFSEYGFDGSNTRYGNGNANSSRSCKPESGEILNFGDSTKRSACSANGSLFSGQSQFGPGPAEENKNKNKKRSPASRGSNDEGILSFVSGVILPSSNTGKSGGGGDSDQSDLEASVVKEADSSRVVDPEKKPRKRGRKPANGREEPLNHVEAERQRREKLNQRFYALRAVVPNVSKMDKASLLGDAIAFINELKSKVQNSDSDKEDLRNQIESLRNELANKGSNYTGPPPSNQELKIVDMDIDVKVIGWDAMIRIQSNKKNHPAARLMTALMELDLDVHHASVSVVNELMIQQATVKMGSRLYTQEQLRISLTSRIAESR

B1: G2-box probe of NtQPT2 promoter (dsDNA)
DNA 1: AGTAGCTGAACACGTTTTATTTATGGTTGTTGAATAGT
DNA 2: ACTATTCAACAACCATAAATAAAACGTGTTCAGCTACT
binding result: binds

— US20180362994, “TRANSCRIPTION FACTORS THAT REGULATE NICOTINE BIOSYNTHESIS IN TOBACCO” (NORTH CAROLINA STATE UNIVERSITY, published 2018)
